The numbers were not newly measured in paper PMC10531495, which cites them from elsewhere.

pKd: −log10 of the molar value. Where two headings read alike, the source gives them in different places.

Series [1] has as its target IAPP (Homo sapiens) (UniProt P10997).
For series [2] the target is unchanged. This is another data set of the same source.
For series [3] the target is unchanged. This is another data set of the same source.
The target is the same in series [4]. The source holds these as a separate data set.
The target of series [5] is Aβ monomer (Homo sapiens) (UniProt P05067).

Sequence of IAPP (Homo sapiens) (P10997 32-73): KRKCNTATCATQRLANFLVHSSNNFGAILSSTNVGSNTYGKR
Sequence of leucine enkephalin (P01210 whole entry, looked up): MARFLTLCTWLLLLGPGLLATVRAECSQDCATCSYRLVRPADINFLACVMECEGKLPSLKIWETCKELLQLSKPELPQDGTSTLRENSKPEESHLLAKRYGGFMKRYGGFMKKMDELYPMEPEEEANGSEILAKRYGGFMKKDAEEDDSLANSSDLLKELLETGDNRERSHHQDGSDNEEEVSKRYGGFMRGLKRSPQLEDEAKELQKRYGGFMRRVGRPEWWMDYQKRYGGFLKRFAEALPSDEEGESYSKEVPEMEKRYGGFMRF

A word on the pKd: it is the Kd on a negative log10 scale, so that one unit is a factor of ten. Regarding Aβ(1–40) 1-40 (from UniProt P05067), the negative logarithm of the Kd (pKd) with IAPP (Homo sapiens) [1] is 7.31.

With Aβ(25–35) 25-35 (from UniProt P05067), in the series with IAPP (Homo sapiens) [2], the pKd was 6.55.

For Aβ(29–40) 29-40 (from UniProt P05067), the negative logarithm of the Kd (pKd) with IAPP (Homo sapiens) [3] was 6.70.

As for Aβ(35–40) 35-40 (from UniProt P05067), the negative logarithm of the Kd (pKd) with IAPP (Homo sapiens) [4] was 6.45.

“leucine enkephalin (from UniProt P01210)”: the pKd in series [5] was 4.22.
